Assay results as given in patent US20190282673A1, “STAPHTAME ACTIVITY ON BIOFILMS” (priority 2016, published 2019).

Legend:
[1] = system: S. aureus small colony variants and wild type; assay: CFU drop assay on small colony variants; assay type: cell-based, Staphylococcus aureus
Procedure: Bacterial cultures were grown in LB medium at 37° C. until OD600 reached 1.0 and then diluted in LB to obtain 10^7 CFU. 100 μL of cells (10^7 CFU) in LB were treated with 100 μL of P128 (in saline) and incubated at 37° C. for 1 h, 200 rpm, cell controls without proteins were maintained. Following incubation, the volume was made up to 1 mL with LB broth, serially log diluted in LB broth and plated on LB agar. Incubated at 37° C. for 16-18 h to enumerate residual CFU and determine cell killing.

[2] = system: S. aureus BK1 biofilms; assay: Scanning electron microscopy of treated biofilms in microtitre plates; assay type: cell-based, Staphylococcus aureus; details: Gentamycin 50 μg/mL; P128 12.5 μg/mL (lowest concentration tested)
Procedure: MRSA strain BK1 or MW2 was used for studying biofilm eradication activity of P128 by SEM. For this, biofilms formed in microtitre plates or on the surface of catheters were treated with increasing concentrations of P128 or antibiotics and subjected to SEM. S. aureus BK1 or MW2 was revived on blood agar plates and the culture was grown overnight in TSB supplemented with 20% glucose. The overnight-grown culture was diluted 1:50 in TSB with 2% glucose to achieve OD600=˜0.1. 200 μL of the diluted culture was aliquoted into each well of the 96 well plate and incubated at 37° C. under static conditions for 18 h. After incubation the contents were aspirated, washed twice with 200 μL of PBS, and 100 μL of media+100 μL of drug were added to each well and incubated again at 37° C. for 18 h. The contents were aspirated, washed with 200 μL of PBS and allowed to dry at 37° C. for 15 min. The individual wells were cut out and biofilms visualized by SEM.

[3] = system: S. lugdunensis stationary phase cells; assay: P128 activity on stationary phase cells (CFU); assay type: cell-based; details: 10 μg/mL P128, 2 h
Description: (§1) Most in vitro studies examining the activity of antibiotics have been performed on rapidly dividing planktonic bacterial cultures supplemented with rich growth media. However, in infections, bacteria seldom encounter optimal conditions that allow logarithmic growth. It is likely that stationary-phase or non dividing bacteria are common in many persistent Staphylococcus infections such as endocarditis and osteomyelitis and in biofilm-associated infections (e.g., on catheters, grafts, and foreign bodies). Therefore, activity of P128 was determined on stationary phase cells of three S. aureus strains, three S. epidermidis, and two each of S. lugdunensis and S. haemolyticus strains. Briefly, the test cultures were grown overnight in LB (˜10^9 cells), centrifuged, pellet was washed and resuspended in saline. Optical density (OD600) was adjusted to 0.2 (˜10^8 CFU/mL). 100 μL of these cells were treated with 10 μg/mL P128 (in saline) and incubated at 37° C. for 2 h, 200 rpm, cell controls without proteins were maintained. Following incubation, the volume was made up to 1 mL with saline, serially log diluted in saline and plated on LB agar. Incubated at 37° C. for 18 h to enumerate residual CFU to determine cell killing.

[4] = system: S. haemolyticus stationary phase cells; assay: P128 activity on stationary phase cells (CFU); assay type: cell-based; details: 10 μg/mL P128, 2 h
Description: as §1

[5] = system: MRSA MW2; assay: Rat model of infective endocarditis; assay type: in vivo, Wistar albino rats; details: described in present tense, no data
Description: A rat model of infective endocarditis is used. Fernandez, et al. (2012). Synergistic activity of ceftobiprole and vancomycin in a rat model of infective endocarditis caused by methicillin-resistant and glycopeptide-intermediate Staphylococcus aureus. Antimicrob Agents Chemother. 56(3):1476-84. Female Wistar albino rats are operated under ketamine and xylazine anaesthesia Right carotid artery is cannulated and polyethylene catheter is placed near the […]. Two days later, animals are challenged with MRSA MW2 through tail vein. Twenty four hours post-challenge, animals are treated with appropriate doses of P128 (IV bolus or infusion) or standard of care antibiotics (e.g., vancomycin, daptomycin, linezolid, oxacillin, etc.) or both. Animals are euthanized at appropriate time after the last dosing, vegetations are collected and bacterial load is determined.

B1: P128: anti-staphylococcal chimeric protein: phage tail associated muralytic enzyme (TAME) cell wall-degrading region plus staphylococcus-specific binding region; SEQ ID NO: 1 (protein)
chain: MSLDSLKKYNGKLPKHDPSFVQPGNRHYKYQCTWYAYNRRGQLGIPVPLWGDAADWIGGAKGAGYGVGRTPKQGACVIWQRGVQGGSPQYGHVAFVEKVLDGGKKIFISEHNYATPNGYGTRTIDMSSAIGKNAQFIYDKKLETPNTGWKTNKYGTLYKSESASFTPNTDIITRTTGPFRSMPQSGVLKAGQTIHYDEVMKQDGHVWVGYTGNSGQRIYLPVRTWNKSTNTLGVLWGTIK
modifications: P128 chimera
Reduction in CFU of SCV strains [1]: more than 4 log | CFU/mL, P128 treated ([1]; S. aureus USA 300 (wild type), 1 h): 4.5 × 10^2 CFU/mL | CFU/mL, P128 treated ([1]; hemB small colony mutant NR48387, 1 h): 3.0 × 10^1 CFU/mL | CFU/mL, P128 treated ([1]; menD mutant small colony mutant, 1 h): 1.2 × 10^3 CFU/mL | Effect on biofilm by SEM [2]: destroyed the biofilm structure and lysed the bacterial cells completely | CFU/mL, P128 treated ([3]; S. lugdunensis B9474 stationary phase): 4.9 × 10^2 CFU/mL | CFU/mL, P128 treated ([3]; S. lugdunensis B9475 stationary phase): 2.7 × 10^4 CFU/mL | CFU/mL, P128 treated ([4]; S. haemolyticus B9478 stationary phase): 1.1 × 10^3 CFU/mL | CFU/mL, P128 treated ([4]; S. haemolyticus B9479 stationary phase): 6 × 10^2 CFU/mL | CFU reduction in vegetations [5]: Significantly higher CFU reduction
